# Assay results from the domain aggregation screens of Martell et al. (2025).
# Assay: soluble fraction after stress (log2 fold change); higher = more stays soluble; pooled small domains, quantitative proteomics
# Conditions: stress: 75 degC
# 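Further: 20 min heating vs room temperature control held 20 min.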
row,Sequence,soluble fraction (log2)
1,HMSQKVQEDFLGDIRKNEIAVTVFLINGVKLQGVITWFDDASILLRRDGHTQLIYKHAVSTIMPGVAVDI,-0.582
2,HMSQLYINATDDGWVIGNLPADAREVLLTTLGGQVVARYHVTAPSLRVKAPRKGVYIVSVETA,-2.11
3,HMSQQVVTDGVNLRLRYAPSPDAETYKWADGTNRHPEKGERFPYLGDIGDFYRIDYKGLVLYVSKQHTHL,-2.04
4,HMSQRITYTEFVQMVKDDKVEKVEVGANQYNITPKSDDKTLVKMTYYTGFIKDENLLDLLNKHKVEIDGYI,-0.792
5,HMSQSIGQEKALSIALADAGVQKENALGLEVKGEYDDGQLLYEVEFRAGGVEYEYEVRASDGRIVKAERD,0.0638
6,HMSQSMEVLYTDLTDKDAAAIVEKLEEEKIPYQLEDQGTTILVPPGVKYTTRLKLAAEDLPKG,0.0723
7,HMSQYVPDPVLNAALVGYLDFRKQAGKPMTDYSIRLLLVDLAKLSGNPQEQAAILDQSTKNNWIGVYALG,-3.04
8,HMSRAARLALDALPDEWAQFAESRGLAGSAMAETWETFRDYWQAQPGQKGVKADWAATWRNWVRRETQNRG,-0.378
9,HMSRDYKTELQERLQVNGPVKIEYQVIAEDESKPSFKVQLLVNDKKISEGQGRNKKAAEQQAAQAAL,0.0103
10,HMSREEFLTELRKALQGRVSQQTVNDNLRYYEEYILTESHKGKTEAEVIAELGNPRLLAKSIIDAENAT,0.0701
11,HMSRESNISTGRQLLEAQLPTWGYKKVEDIPSKQMKTALDAFNYKDVESLLQGLGEGSVALTTALRRLMP,-0.095
12,HMSRFLEGILQRRAGGKNYFVPDDGSNPIFIADRNSAGAANGDRVRIAQFARRPRSGPEGEVVEILKRAK,-0.0772
13,HMSRGAIVTGTVIEKNQSGIYVDLGYKSDGIVPIEEFDGEESKYNVGDQIRVYVKKVDDGHGQLML,0.142
14,HMSRGTRIDPNWQPSPEDRALARAEGFSDPEIDREALQFRDYWLGASGSNAVKLDWSATWRNWVRRAATNF,-0.396
15,HMSRKERERSQHRRDILAAGEKIFAQKGYFNATIEEIAREAEFSVGTIYNFFSNKETLYQEIIRSI,-0.418
16,HMSRLQDAELQAQIDKMAGAMQLRDIPVYVQDIPTINGLAAPDGRVFITQGFIDKYKLGEVSAGEIASVI,0.29
17,HMSRPLISNMLRLLNLPPTVQRKVAAGVISAGHARALLGLNDEKEIEKLANRIVAEGLSVRATEEIVAIA,-1.62
18,HMSRWHEFLNKSEDGMKELDEQNQKVLTLLILQRFYQTPFQAKEDEEFYREFFERLSSVNEILG,-0.468
19,HMSSAYLTVRGIDIDVIYKDIKNLHIAVYPPFGRVRVAAPSHLDDDQVRLAVIQRLTWIKRQRERLRST,-1.62

row,Sequence,soluble fraction (log2)
1,HMSSDEAEYKLLLGQEGVAKSPLRPSGVVDFSGRRLDVQTLGDFIESGETVVVKQVNGHRVLVERK,0.135
2,HMSSDEEQLATLTRLLQKQEQIIQTLGPRNPMVSLQQYANTITKVIEMAGFKDTSQFINSQIP,0.0951
3,HMSSDLESVIGTHSQEANFALRSWGWIQPDETWKNLRPDQVSQILERANEFMAKAIESFANAQSE,-0.141
4,HMSSDLLGVRVRRARARAGLTRRRLSLLSGVSERFLAQLESGQGNISIVLIRRVAAALGAELVELIGS,-0.555
5,HMSSEDTQSRDRARKELSNEMSRIMKRYGLDYQPRDNADDIMNRLKAAGADENTLAYVQEKLK,-0.0442
6,HMSSEITYDKFIEMVDKDQVKEVTLQSGVLTVVPKIQKSYYQNASYKVNQMEDVDALTKRLEGTGIVFHY,0.322
7,HMSSEITYDKFIEMVEEGNVKEVTLQSDTLTIKPKHQDSAFSEKEYYTRQMESADQLTERLEGTGIEFHS,0.119
8,HMSSEQRSVLFPNLAETDKVAVIEALMAAGVNARVDSASGRVTVPSGDYYNSRAILAAQGLPTS,0.0148
9,HMSSETTVPAVVGIKEDKARQLASEQGLRLRVKSREESADVEEGIIISQDPNSNTKVKKGDEIEVVVS,0.102
10,HMSSFSESFHKALNNLDDKHKSVFSLRHFEGFSMKEIAETLNINEGTVKSRLFYATKTLAGALKEF,-3.45
11,HMSSGKTGTITLQPKQTVYGITKQYKISEADLRKLNPQLDSNLKIGDKITLPLDNIQRYSDSSSNVAQT,0.0568
12,HMSSGLLTVQEQRILEHLANGERNGDIAGRLHISEGTVKWHLHNMYRKLDAATRTQAVARARALRL,0.36
13,HMSSIGERISDVRKARGYTQDQLAERIHVSRQTISHWENERALPDFESIKQLSQVLGYDFSS,-0.123
14,HMSSIHQDAKQQLHEYIRTYIQPLMRAGKQVTVWDIIGHVTIRKPKLVQKIGTQQLINMVQDLLE,-0.624
15,HMSSKSDQLYLQLRRRISAMKDGEPFPTVRQLMTEYQVSQSTVTPAINQLKEKGLIEAYVGRGSFVSKK,-0.657
16,HMSSKTKVEDLGLSTRTLNALIGGSIKTAGGLTRKSESDLLSLDGLGEKGITEIKEALENIGLSLK,0.103
17,HMSSLKKISIDELSPGMYVHSIVEQKGSVKIKSQGKVLKQAVVDALRKRGVKTLLIDLSKQFNPETGEP,-0.985
18,HMSSLTPRETEVLSRMAQGDANTSIAERLVITEKAVQKHINAIFAKLGLAEEPTSARRVLAVLAFLR,-0.539
19,HMSSLTQREYEIAELVADGLSNKAIAAELSISHTTAARHVANIMNKLGFNSRSQIAAWVADRAQG,0.0373
